B1: recombinant mouse GDF3 (Growth Differentiation Factor 3) (ligand, UniProt Q07104 253-366, looked up)
chain: AAISVPKGFCRNFCHRHQLFINFQDLGWHKWVIAPKGFMANYCHGECPFSMTTYLNSSNYAFMQALMHMADPKVPKAVCVPTKLSPISMLYQDSDKNVILRHYEDMVVDECGCG
notes: Growth Differentiation Factor 3, mouse, recombinant; also called rmGDF3; mouse rGDF3; source: CHO cell-derived
B2: recombinant human GDF3 (Growth Differentiation Factor 3) (ligand, UniProt Q9NR23 251-364, looked up)
chain: AAIPVPKLSCKNLCHRHQLFINFRDLGWHKWIIAPKGFMANYCHGECPFSLTISLNSSNYAFMQALMHAVDPEIPQAVCIPTKLSPISMLYQDNNDNVILRHYEDMVVDECGCG
notes: Growth Differentiation Factor 3, human, recombinant; also called rhGDF3; human rGDF3

What was measured:
[1] = biological target: T1, SB-431542-resistant rat ALK5 S278T (Alk5-ST) (rat, UniProt P80204 30-501, S278T); test: cell-based or functional assay
T1 sequence (looked up): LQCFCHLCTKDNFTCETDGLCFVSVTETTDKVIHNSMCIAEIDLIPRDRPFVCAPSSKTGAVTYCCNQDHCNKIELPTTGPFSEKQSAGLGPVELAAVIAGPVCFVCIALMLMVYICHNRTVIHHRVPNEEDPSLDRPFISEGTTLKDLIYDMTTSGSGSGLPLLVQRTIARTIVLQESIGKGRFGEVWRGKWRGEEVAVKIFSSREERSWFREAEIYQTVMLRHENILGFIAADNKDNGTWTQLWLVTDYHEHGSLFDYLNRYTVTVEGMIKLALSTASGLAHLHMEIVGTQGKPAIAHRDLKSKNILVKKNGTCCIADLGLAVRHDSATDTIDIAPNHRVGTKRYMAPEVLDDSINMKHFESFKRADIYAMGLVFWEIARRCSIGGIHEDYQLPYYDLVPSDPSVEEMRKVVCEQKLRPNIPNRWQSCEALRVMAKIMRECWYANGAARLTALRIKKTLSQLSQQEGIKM

[2] = biological target: T2, Fc-chimera of the human type II BMP receptor (rhBMPR2-Fc) (human, UniProt Q13873 27-150); test: BLI; Gator Plus; capturing receptor (rhBMPR2-Fc) at 10 µg/mL on anti-human IgG Fc probes; GDF3 in solution (rhGDF3 50 nM; rmGDF3 25-100 nM); PBS, 1 mg/mL BSA, 0.1% Tween20, pH 7.4, 25 °C; conditions: both partners purified
T2 construct: type II BMP receptor BMPR2, human, part fused to Fc; Probably the extracellular domain fused to human IgG1 Fc (surmised); also called rhBMPRII-Fc; BMPRII
T2 sequence (looked up): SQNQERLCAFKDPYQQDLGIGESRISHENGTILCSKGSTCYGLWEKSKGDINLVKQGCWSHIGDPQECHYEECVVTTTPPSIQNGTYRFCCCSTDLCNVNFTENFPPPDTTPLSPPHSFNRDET

[3] = biological target: T2, Fc-chimera of the human type II BMP …; test: ITC; Nano ITC Standard Volume; 250 ng/mL of rhBMPR2-Fc, rhBMP2, rmBMP4 or rhBMP9 titrated into 250 ng/mL of rmGDF3; 10 injections of 8 µL at 350 s intervals, 300 rpm; conditions: both partners purified
[4] = biological target: T3, chimeric recombinant human ACVR2B-Fc (human, UniProt Q13705 19-137); test: SPR; Biacore T200; receptor-Fc captured on a Protein A sensor chip (~70 RU); rhGDF3 flowed over, two-fold dilutions 12.5 nM-0.391 nM; 20 mM HEPES pH 7.4, 350 mM NaCl, 3.4 mM EDTA, 0.05% P-20, 0.5 mg/ml BSA, 25 °C; 1:1 fit model with mass transport limitations; conditions: both partners purified
T3 construct: activin receptor type 2B (ACVR2B), human, part fused to Fc; Probably the extracellular domain fused to Fc (surmised); also called rhACVR2B-Fc; rhACVR2B
T3 sequence (looked up): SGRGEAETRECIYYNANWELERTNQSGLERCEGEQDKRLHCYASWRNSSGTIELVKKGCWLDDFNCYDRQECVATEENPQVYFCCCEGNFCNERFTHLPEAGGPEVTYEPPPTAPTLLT

[5] = biological target: T4, chimeric recombinant human ACVR2A-Fc (human, UniProt P27037 20-135); test: as above; conditions: both partners purified
T4 construct: activin receptor type 2A (ACVR2A), human, part fused to Fc; Probably the extracellular domain fused to Fc (surmised); also called rhACVR2A-Fc; rhACVR2A

[6] = biological target: T2, Fc-chimera of the human type II BMP …; test: as above; conditions: both partners purified

T4 sequence (P27037 20-135, change not shown): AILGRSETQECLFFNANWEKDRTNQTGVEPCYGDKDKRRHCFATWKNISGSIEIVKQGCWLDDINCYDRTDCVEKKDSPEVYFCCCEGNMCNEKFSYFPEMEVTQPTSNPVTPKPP

Row | Binder | SBE-luciferase (CAGA12) reporter activity in HEK-293 cells expressing Alk5-ST, rmGDF3 0, 250, 500 or 1000 ng/mL with SB-431542 [1] [fold] | Kd [2] [nM] | koff [2] [s⁻¹] | kon [2] [M⁻¹ s⁻¹] | Kd [3] [nM] | Kd [4] [nM] | koff [4] [s⁻¹] | kon [4] [M⁻¹ s⁻¹] | Kd [5] [nM] | koff [5] [s⁻¹] | kon [5] [M⁻¹ s⁻¹] | Kd [6] [nM] | koff [6] [s⁻¹] | kon [6] [M⁻¹ s⁻¹]
1 | B1 | 70 | 13.1 | 0.00483 | 370000 | 811 | – | – | – | – | – | – | – | – | –
2 | B2 | – | – | – | – | – | 0.332 | 0.00038 | 2.12e+06 | 1.26 | 0.000405 | 1.21e+06 | 0.601 | 0.00149 | 2.19e+06

Source: publication PMC12075709, “Acute regulation of murine adipose tissue lipolysis and insulin resistance by the TGFβ superfamily protein GDF3” (Nature Communications, 2025)
